The source of these data is publication PMC3485210.

Data set [1] concerns G44P (Bacillus subtilis bacteriophage SPP1). In words: EMSA. The note with it: EMSA: 50 mM Tris-HCl pH 7.5, 50 mM NaCl, 50 ng/ul BSA, 5% glycerol, 1 mM EDTA, 0.2 nM DNA, 37 C, 15 min (20 min in Fig 4 legend), 6% PAGE. For orientation: A gel shift assay detects complexes by their altered migration in electrophoresis.
In data set [2] the target is gene 44 product (G44P) of Bacillus subtilis bacteriophage SPP1 (Bacillus subtilis bacteriophage SPP1). In words: SEC; FPLC gel filtration on Superdex 75 in buffer A (50 mM phosphate pH 7.5, 5% glycerol, 1 mM EDTA) with 1 M NaCl, 0.5 ml/min; 30 µg protein in 200 µl; mass from a standard curve of Kav versus log10 of molecular mass. On the technique in general: Size exclusion chromatography separates by hydrodynamic size, large species first.

Consider “CGCAAGCGACAGGAACCTCGAGAAGCTTCCGGTAGCAGCCTGAGCGGTGGTTGAATTCCTCGAGGTTCCTGTCGCTTGCG / CGCAAGCGACAGGAACCTCGAGGAATTCAACCACCGCTCAACTCAACTGCAGTCTAGACTCGAGGTTCCTGTCGCTTGCG / CGCAAGCGACAGGAACCTCGAGTCTAGACTGCAGTTGAGTCCTTGCTAGGACGGATCCCTCGAGGTTCCTGTCGCTTGCG / CGCAAGCGACAGGAACCTCGAGGGATCCGTCCTAGCAAGGGGCTGCTACCGGAAGCTTCTCGAGGTTCCTGTCGCTTGCG [HJ-J3]”, for which the K half in data set [1] worked out at 10 nM.

Regarding “CGCAAGCGACAGGAACCTCGAGGAATTCAACCACCGCTCAACTCAACTGCAGTCTAGACTCGAGGTTCCTGTCGCTTGCG (double strand) [80-bp dsDNA]”, the K half in data set [1] (complexes unstable in gel) worked out at 48 nM. As for “gene 44 product (G44P) of Bacillus subtilis bacteriophage SPP1 (enzyme)”, in data set [2], the stoichiometry N (as a rule, a count of units in the complex or per binding partner) stood at 2. Regarding DL-D (D-loop), the K half in data set [1] amounted to 5 nM.
